Assay results as given in US12679878B2, “CRF2 receptor agonists and their use in therapy” (SANOFI, priority 2020, dated 2026).
Starred links: 1 amine or outer side, 2 acyl side, 3 side chain; linkers in the order of their positions; H or OH if unused. Non-standard residues stand in square brackets, D forms with d. Groups on a side chain read outwards from the residue. No end group written: not given here. *: point of attachment. C18 diacid = O=C(O)CCCCCCCCCCCCCCCCC(=O)*; γGlu = O=C(O)[C@H](CCC(=O)[*:2])N[*:1]; Palmitoyl = CCCCCCCCCCCCCCCC(=O)*; AEEA = NCCOCCOCC(=O)O; Aib = CC(C)(N)C(=O)O

B1: SEQ ID NO: 142 (peptide)
peptide: IVLSLD[dV]PIKLK([AEEA-AEEA-γGlu-C18 diacid])QILLEQARQK[Aib]QREQAEKNKRILERV-NH2
modifications: N-terminus assumed
SMILES: CC[C@H](C)[C@H](N)C(=O)N[C@H](C(=O)N[C@@H](CC(C)C)C(=O)N[C@@H](CO)C(=O)N[C@@H](CC(C)C)C(=O)N[C@@H](CC(=O)O)C(=O)N[C@@H](C(=O)N1CCC[C@H]1C(=O)N[C@H](C(=O)N[C@@H](CCCCN)C(=O)N[C@@H](CC(C)C)C(=O)N[C@@H](CCCCNC(=O)COCCOCCNC(=O)COCCOCCNC(=O)CC[C@H](NC(=O)CCCCCCCCCCCCCCCCC(=O)O)C(=O)O)C(=O)N[C@@H](CCC(N)=O)C(=O)N[C@H](C(=O)N[C@@H](CC(C)C)C(=O)N[C@@H](CC(C)C)C(=O)N[C@@H](CCC(=O)O)C(=O)N[C@@H](CCC(N)=O)C(=O)N[C@@H](C)C(=O)N[C@@H](CCCNC(=N)N)C(=O)N[C@@H](CCC(N)=O)C(=O)N[C@@H](CCCCN)C(=O)NC(C)(C)C(=O)N[C@@H](CCC(N)=O)C(=O)N[C@@H](CCCNC(=N)N)C(=O)N[C@@H](CCC(=O)O)C(=O)N[C@@H](CCC(N)=O)C(=O)N[C@@H](C)C(=O)N[C@@H](CCC(=O)O)C(=O)N[C@@H](CCCCN)C(=O)N[C@@H](CC(N)=O)C(=O)N[C@@H](CCCCN)C(=O)N[C@@H](CCCNC(=N)N)C(=O)N[C@H](C(=O)N[C@@H](CC(C)C)C(=O)N[C@@H](CCC(=O)O)C(=O)N[C@@H](CCCNC(=N)N)C(=O)N[C@H](C(N)=O)C(C)C)[C@@H](C)CC)[C@@H](C)CC)[C@@H](C)CC)C(C)C)C(C)C
B2: SEQ ID NO: 143 (peptide)
peptide: FTLSLDVPTKIK([AEEA-AEEA-γGlu-C18 diacid])QILLKQEKQKKQRQKAKTNKQILERV-NH2
modifications: N-terminus assumed
SMILES: CC[C@H](C)[C@H](NC(=O)[C@H](CCC(N)=O)NC(=O)[C@H](CCCCN)NC(=O)[C@H](CC(N)=O)NC(=O)[C@@H](NC(=O)[C@H](CCCCN)NC(=O)[C@H](C)NC(=O)[C@H](CCCCN)NC(=O)[C@H](CCC(N)=O)NC(=O)[C@H](CCCNC(=N)N)NC(=O)[C@H](CCC(N)=O)NC(=O)[C@H](CCCCN)NC(=O)[C@H](CCCCN)NC(=O)[C@H](CCC(N)=O)NC(=O)[C@H](CCCCN)NC(=O)[C@H](CCC(=O)O)NC(=O)[C@H](CCC(N)=O)NC(=O)[C@H](CCCCN)NC(=O)[C@H](CC(C)C)NC(=O)[C@H](CC(C)C)NC(=O)[C@@H](NC(=O)[C@H](CCC(N)=O)NC(=O)[C@H](CCCCNC(=O)COCCOCCNC(=O)COCCOCCNC(=O)CC[C@H](NC(=O)CCCCCCCCCCCCCCCCC(=O)O)C(=O)O)NC(=O)[C@@H](NC(=O)[C@H](CCCCN)NC(=O)[C@@H](NC(=O)[C@@H]1CCCN1C(=O)[C@@H](NC(=O)[C@H](CC(=O)O)NC(=O)[C@H](CC(C)C)NC(=O)[C@H](CO)NC(=O)[C@H](CC(C)C)NC(=O)[C@@H](NC(=O)[C@@H](N)Cc1ccccc1)[C@@H](C)O)C(C)C)[C@@H](C)O)[C@@H](C)CC)[C@@H](C)CC)[C@@H](C)O)C(=O)N[C@@H](CC(C)C)C(=O)N[C@@H](CCC(=O)O)C(=O)N[C@@H](CCCNC(=N)N)C(=O)N[C@H](C(N)=O)C(C)C
B3: SEQ ID NO: 144 (peptide)
peptide: FTLSLDVPTKIK([AEEA-AEEA-γGlu-C18 diacid])QILLKQERQKKQRQKAKTNKQILERV-NH2
modifications: N-terminus assumed
SMILES: CC[C@H](C)[C@H](NC(=O)[C@H](CCC(N)=O)NC(=O)[C@H](CCCCN)NC(=O)[C@H](CC(N)=O)NC(=O)[C@@H](NC(=O)[C@H](CCCCN)NC(=O)[C@H](C)NC(=O)[C@H](CCCCN)NC(=O)[C@H](CCC(N)=O)NC(=O)[C@H](CCCNC(=N)N)NC(=O)[C@H](CCC(N)=O)NC(=O)[C@H](CCCCN)NC(=O)[C@H](CCCCN)NC(=O)[C@H](CCC(N)=O)NC(=O)[C@H](CCCNC(=N)N)NC(=O)[C@H](CCC(=O)O)NC(=O)[C@H](CCC(N)=O)NC(=O)[C@H](CCCCN)NC(=O)[C@H](CC(C)C)NC(=O)[C@H](CC(C)C)NC(=O)[C@@H](NC(=O)[C@H](CCC(N)=O)NC(=O)[C@H](CCCCNC(=O)COCCOCCNC(=O)COCCOCCNC(=O)CC[C@H](NC(=O)CCCCCCCCCCCCCCCCC(=O)O)C(=O)O)NC(=O)[C@@H](NC(=O)[C@H](CCCCN)NC(=O)[C@@H](NC(=O)[C@@H]1CCCN1C(=O)[C@@H](NC(=O)[C@H](CC(=O)O)NC(=O)[C@H](CC(C)C)NC(=O)[C@H](CO)NC(=O)[C@H](CC(C)C)NC(=O)[C@@H](NC(=O)[C@@H](N)Cc1ccccc1)[C@@H](C)O)C(C)C)[C@@H](C)O)[C@@H](C)CC)[C@@H](C)CC)[C@@H](C)O)C(=O)N[C@@H](CC(C)C)C(=O)N[C@@H](CCC(=O)O)C(=O)N[C@@H](CCCNC(=N)N)C(=O)N[C@H](C(N)=O)C(C)C
B4: SEQ ID NO: 15 (peptide)
peptide: FTLSLDVPTKIK([γGlu-Palmitoyl])QKLFKQAKQKKQRQKAKTNAQILARV-NH2
modifications: N-terminus assumed
SMILES: CCCCCCCCCCCCCCCC(=O)N[C@@H](CCC(=O)NCCCC[C@H](NC(=O)[C@@H](NC(=O)[C@H](CCCCN)NC(=O)[C@@H](NC(=O)[C@@H]1CCCN1C(=O)[C@@H](NC(=O)[C@H](CC(=O)O)NC(=O)[C@H](CC(C)C)NC(=O)[C@H](CO)NC(=O)[C@H](CC(C)C)NC(=O)[C@@H](NC(=O)[C@@H](N)Cc1ccccc1)[C@@H](C)O)C(C)C)[C@@H](C)O)[C@@H](C)CC)C(=O)N[C@@H](CCC(N)=O)C(=O)N[C@@H](CCCCN)C(=O)N[C@@H](CC(C)C)C(=O)N[C@@H](Cc1ccccc1)C(=O)N[C@@H](CCCCN)C(=O)N[C@@H](CCC(N)=O)C(=O)N[C@@H](C)C(=O)N[C@@H](CCCCN)C(=O)N[C@@H](CCC(N)=O)C(=O)N[C@@H](CCCCN)C(=O)N[C@@H](CCCCN)C(=O)N[C@@H](CCC(N)=O)C(=O)N[C@@H](CCCNC(=N)N)C(=O)N[C@@H](CCC(N)=O)C(=O)N[C@@H](CCCCN)C(=O)N[C@@H](C)C(=O)N[C@@H](CCCCN)C(=O)N[C@H](C(=O)N[C@@H](CC(N)=O)C(=O)N[C@@H](C)C(=O)N[C@@H](CCC(N)=O)C(=O)N[C@H](C(=O)N[C@@H](CC(C)C)C(=O)N[C@@H](C)C(=O)N[C@@H](CCCNC(=N)N)C(=O)N[C@H](C(N)=O)C(C)C)[C@@H](C)CC)[C@@H](C)O)C(=O)O

target: human corticotropin-releasing factor 2α (CRF2 α receptor) (human), Q13324; test: cell-based or functional assay
Sequence (Q13324 20-411): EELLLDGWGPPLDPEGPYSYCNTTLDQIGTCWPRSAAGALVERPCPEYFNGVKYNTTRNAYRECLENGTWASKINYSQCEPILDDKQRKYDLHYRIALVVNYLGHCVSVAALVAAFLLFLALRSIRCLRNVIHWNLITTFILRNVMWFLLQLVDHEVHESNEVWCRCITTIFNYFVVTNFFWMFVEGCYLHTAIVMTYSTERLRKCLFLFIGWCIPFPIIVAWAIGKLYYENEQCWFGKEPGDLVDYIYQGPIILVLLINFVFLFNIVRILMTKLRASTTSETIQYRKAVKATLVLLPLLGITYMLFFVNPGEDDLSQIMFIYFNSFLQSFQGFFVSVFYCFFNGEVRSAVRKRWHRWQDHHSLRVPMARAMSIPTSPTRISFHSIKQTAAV

| EC50 [nM], 0% HSA [nM] | EC50 [nM], 0.1% HSA [nM] | Binder |
| --- | --- | --- |
| 0.05 | 1.42 | B1 |
| 1.44 | 93.8 | B2 |
| 1.36 | 76.3 | B3 |
| 0.88 |  | B4 |
